Laboratory results: doi:10.1101/2025.11.24.690255v1
Positions count from the first letter of the chain named. Names and notes keep the numbering of the source.

B1: β-glucosidase B (BglB) (Paenibacillus polymyxa; N160L) (protein)
chain: MSENTFIFPATFMWGTSTSSYQIEGGTDEGGRTPSIWDTFCQIPGKVIGGDCGDVACDHFHHFKEDVQLMKQLGFLHYRFSVAWPRIMPAAGIINEEGLLFYEHLLDEIELAGLIPMLTLYHWDLPQWIEDEGGWTQRETIQHFKTYASVIMDRFGERILWWNTINEPYCASILGYGTGEHAPGHENWREAFTAAHHILMCHGIASNLHKEKGLTGKIGITLNMEHVDAASERPEDVAAAIRRDGFINRWFAEPLFNGKYPEDMVEWYGTYLNGLDFVQPGDMELIQQPGDFLGINYYTRSIIRSTNDASLLQVEQVHMEEPVTDMGWEIHPESFYKLLTRIEKDFSKGLPILITENGAAMRDELVNGQIEDTGRHGYIEEHLKACHRFIEEGGQLKGYFVWSFLDNFEWAWGYSKRFGIVHINYETQERTPKQSALWFKQMMAKNGF
B2: β-glucosidase B (BglB) (Paenibacillus polymyxa; N160G) (protein)
chain: B1 chain with L160G
B3: β-glucosidase B (BglB) (Paenibacillus polymyxa; N160M) (protein)
chain: B1 chain with L160M
B4: β-glucosidase B (BglB) (Paenibacillus polymyxa; N160S) (protein)
chain: B1 chain with L160S
B5: β-glucosidase B (BglB) (Paenibacillus polymyxa; N160C) (protein)
chain: B1 chain with L160C

These proteins were tested on O=[N+]([O-])c1ccc(O[C@@H]2O[C@H](CO)[C@@H](O)[C@H](O)[C@H]2O)cc1 (assay: purified protein). Conditions: 0-100 mM substrate, 15 min.
Work on B1 yielded a Km of 13.8 ± 1.6 mM and a kcat of 3.245 ± 0.127 s⁻¹. In the case of B2, the Km is reported as 3.5 ± 0.2 mM and the kcat is reported as 9.81 ± 0.137 s⁻¹. B3 showed a Km of 14.1 ± 1.3 mM and a kcat of 4.162 ± 0.122 s⁻¹. Work on B4 yielded a Km of 4.9 ± 0.2 mM and a kcat of 4.527 ± 0.05 s⁻¹. B5 showed a Km of 4.3 ± 0.3 mM and a kcat of 9.147 ± 0.157 s⁻¹.
